Data on 1 molecule can be found in publication PMC3217859, “Protein phosphatase 2a (PP2A) binds within the oligomerization domain of striatin and regulates the phosphorylation and activation of the mammalian Ste20-Like kinase Mst3” (BMC Biochemistry, 2011).

Assay [1] addresses T1, HA-tagged K270Stop striatin (human, UniProt O43815 1-269).
T1 construct: striatin, human, C-terminal truncation by a stop codon at K270; source: HEK293, transfected, in lysate; not shown: HA, N-terminal, kept
T1 sequence (looked up): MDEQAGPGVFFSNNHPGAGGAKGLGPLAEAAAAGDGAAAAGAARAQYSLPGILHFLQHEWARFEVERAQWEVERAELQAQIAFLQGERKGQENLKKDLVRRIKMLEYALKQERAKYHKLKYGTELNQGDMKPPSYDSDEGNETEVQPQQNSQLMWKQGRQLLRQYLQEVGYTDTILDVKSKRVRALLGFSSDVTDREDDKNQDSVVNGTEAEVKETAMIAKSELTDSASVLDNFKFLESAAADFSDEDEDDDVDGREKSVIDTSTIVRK
The experiment in a line: co-IP; anti-HA immunoprecipitates (12CA5 with protein A-Sepharose, or F7 anti-HA-agarose when probing for Mst3 or Mst4; 1.5 h, 4°C) of lysates (1% Nonidet P-40, 0.135 M NaCl, 10% glycerol, 20 mM Tris pH 8.0) of HEK293 cells transfected with HA-striatins; endogenous partners by immunoblot, partner/HA-striatin ratio by chemilumimager against wild type; 50 mM NaF and 100 nM okadaic acid in the lysis buffer in the …. Conditions: partners not purified. On the technique in general: Immunoblotting shows a protein as a band on a membrane.

For assay [2], the target named is T2, HA-tagged F457Stop striatin (human, UniProt O43815 1-456).
T2 construct: striatin, human, C-terminal truncation by a stop codon at F457 (loss of seven of eight WD-repeats); residues 1-456 by the mutant's name; source: HEK293, transfected, in lysate; not shown: HA, N-terminal, kept
T2 sequence (looked up): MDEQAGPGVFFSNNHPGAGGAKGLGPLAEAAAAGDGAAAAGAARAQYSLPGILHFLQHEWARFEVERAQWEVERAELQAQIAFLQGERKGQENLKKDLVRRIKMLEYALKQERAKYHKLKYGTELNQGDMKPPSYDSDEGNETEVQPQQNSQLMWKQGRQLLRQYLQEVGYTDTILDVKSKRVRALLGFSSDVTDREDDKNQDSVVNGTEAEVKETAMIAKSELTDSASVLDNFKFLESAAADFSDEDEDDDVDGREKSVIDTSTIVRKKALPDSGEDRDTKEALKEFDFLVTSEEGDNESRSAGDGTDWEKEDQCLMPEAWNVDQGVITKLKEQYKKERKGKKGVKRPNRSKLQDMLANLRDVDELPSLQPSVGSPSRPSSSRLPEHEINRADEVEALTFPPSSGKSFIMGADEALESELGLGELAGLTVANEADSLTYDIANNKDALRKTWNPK
The description is as above. Conditions: partners not purified.

B1: Mob3/phocein (natural protein, human (endogenous in HEK293), UniProt Q9Y3A3 1-225, looked up)
chain: MVMAEGTAVLRRNRPGTKAQDFYNWPDESFDEMDSTLAVQQYIQQNIRADCSNIDKILEPPEGQDEGVWKYEHLRQFCLELNGLAVKLQSECHPDTCTQMTATEQWIFLCAAHKTPKECPAIDYTRHTLDGAACLLNSNKYFPSRVSIKESSVAKLGSVCRRIYRIFSHAYFHHRQIFDEYENETFLCHRFTKFVMKYNLMSKDNLIVPILEEEVQNSVSGESEA
notes: source: endogenous, HEK293 lysate
For the molecule B1, the “percent reduction in binding against wild-type striatin” value in assay [1] came to 45%; in assay [2], 29%.
